From publication PMC4629677 come the findings set out here.

The experiment addresses microtubule (sea-urchin sperm axonemes) (sea urchin (sperm axonemes)). Briefly: single-molecule fluorescence imaging.

As for “2T-K490CLM, two-tail stalk-truncated cysteine-light mutant kinesin (motility and ATPase experiments) (from UniProt P33176 1-490; P33176 904-963)”, the duration time on MT (short stop mode) came out at 1.47 s.
“tail-GFP (kinesin tail 904-963 fused to EGFP) (from UniProt P33176 904-963) (domain or fragment)”: the duration time on MT (diffusive mode) amounted to 1.73 s.
